In this series the test system is MS2 coat protein. As to the kind of experiment: apparent KD of MS2 coat protein; designed switch direction (-1 OFF switch, 1 ON switch): 1; higher = weaker reporter binding. In outline: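 Stalled E. coli RNA polymerase transcribed designed RNA switches on Illumina chips, which were then titrated with SNAP-549-labelled MS2 coat protein, doubling from 0.7 or 1.5 nM to 3 µM. Steps lasted from 0.8–1.5 h at the lowest concentration to 10–20 min at the highest. The apparent KD is each design's median over clusters of curve-fitted normalised fluorescence.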

Where [1] appears, read: input ligand: microRNA oligo, concentration not stated.
Setting [2] is: Eterna round: R95, input ligand: FMN 200 uM.
Where [3] appears, read: Eterna round: R95, input ligand: microRNA oligo, concentration not stated.
The mark [4] stands for this setting: Eterna round: R95, input ligand: none.

With “AAACGUCACAUGAGGAUCACCCAUGUAGCCAUAAGAAGCGGACAGGAUAUUGACCUGAACGGAGUCAAGAAGGGUCAGUAUCAG [Eternabot solution 1] (Eterna round: R96, puzzle: Same State NG 3)”, the “apparent KD of MS2 coat protein” value is, setting by setting: (input ligand: FMN 200 uM) 14.7 nM; under setting [1], 12.9 nM; (input ligand: none) 18.2 nM.
For “AAAGAAAACAUAGGAUAUGUAACAUGAGGAUCACCCAUGUAUACCUCGUAAGAGAUGAUGGAUGGACAGAAGGAUGGUCUCAGG [Default title] (Eterna round: R96, puzzle: Same State NG 2)” the same measures were 134 nM, 73.7 nM and 80.6 nM.
In the case of “AAAGAACAUGAGGAUCACCCAUGUGGAAGAGGCACAGGAUAUCACCUCGCAAGUACGAGGUGAGAAGGGUGAUGAU [Araa] (puzzle: Same State 1)”, the “apparent KD of MS2 coat protein” value is, setting by setting: under setting [2], 183 nM; under setting [3], 154 nM; under setting [4], 426 nM.
In the same order, the values of “AAAGCACAUGAGGAUCACCCAUGUGGAAAUAACACAGGAUAUCCUGCCGAAACUAAGGUGGGAGAAGGGUGACCUA [Iszagece] (puzzle: Same State 1)” are 147 nM, 54 nM and 55.9 nM.
In the case of “AAAGGAUGAUGUUACAUGAGGAUCACCCAUGUAGUGAUAACUAAGGAUAUCUGUUAAAUUAAUUAAGAGAAGGUAGGAUCAUUA [AK SSNG3-V2-8.1] (Eterna round: R96, puzzle: Same State NG 3)”, the “apparent KD of MS2 coat protein” value runs as follows: (input ligand: FMN 200 uM) 43.5 nM; under setting [1], 45.8 nM; (input ligand: none) 53.2 nM.
On to “AAAGGAUGAUGUUACAUGAGGAUCACCCAUGUAGUGAUAACUAAGGAUAUGUGUUAAACAAGUUAAUAGAAGGUAGGAUCAUUA [AK SSNG3-V2-7] (Eterna round: R96, puzzle: Same State NG 3)”, for which the “apparent KD of MS2 coat protein” value came to 73.9 nM (input ligand: FMN 200 uM), 52 nM under setting [1] and 69.4 nM (input ligand: none).
Take “AAAGGCAUGGCACAGGAUAUGCAAUAAAAGACAUGAGGAUCACCCAUGUACCCGAGAAACGGGCAGCAGAAGGGUGUAAAAGAAA [Orrere] (puzzle: Same State 2)”: the “apparent KD of MS2 coat protein” value is 134 nM under setting [2], 115 nM under setting [3] and 447 nM under setting [4].
With “AAAUAAACACAUGAGGAUCACCCAUGUCCCAAAAUACAAACGCAGGAUAUGGGCACGAACCGUGUCCAGAAGGGCGCAAAAUAC [Esonbia] (Eterna round: R96, puzzle: Same State NG 3)”, the “apparent KD of MS2 coat protein” value was 24.5 nM (input ligand: FMN 200 uM), 111 nM under setting [1] and 116 nM (input ligand: none).
For “AACAAACGCGGAGGAUAUGGGCGAGGCGCGGAAGUCCACGCCAAAACAUGAGGAUCACCCAUGUCCCAGAAGGCCGCACAAAAU [Gererier] (Eterna round: R96, puzzle: Same State NG 2)” the same measures were 16.3 nM, 40.8 nM and 49.1 nM.
As for “AACAAUCUAUCUCAGGAUAUCAUGUCAAAGACAUGAGGAUCACCCAUGUACCAGGAAACUGGUUAUGAGAAGGGAGAUAGAUUGU [Mat - Same State 2 - Mod - D23] (puzzle: Same State 2)”, the “apparent KD of MS2 coat protein” value is 157 nM under setting [2], 68.2 nM under setting [3] and 268 nM under setting [4].
For “AACAAUCUAUCUGAGGAUAUCAUGAAAUAAACAUGAGGAUCACCCAUGUGCAGGAAAACUGCAUAUGAGAAGGCAGAUAUAUUGA [salish99_ss2_r3_055] (puzzle: Same State 2)” the same measures were 104 nM, 1160 nM and 4700 nM.
In the same order, the values of “AACAAUCUAUCUGAGGAUAUCAUGAAAUAAACAUGAGGAUCACCCAUGUGCAGGAAAACUGCAUAUGAGAAGGCAGUUAGAUUGA [salish99_ss2_r3_053] (puzzle: Same State 2)” are 45.5 nM, 612 nM and 568 nM.
Take “AACAAUCUAUCUGAGGAUAUUAUGAAAUAAACAUGAGGAUCACCCAUGUGCAGGAAAACUGCAUAUGAGAAGGCAGAUAGAUUGA [salish99_ss2_r3_027] (Eterna round: R96, puzzle: Same State 2)”: the “apparent KD of MS2 coat protein” value under setting [1] turned out to be 274 nM.
“AACAAUCUAUCUGAGGAUAUUAUGAAAUAAACAUGAGGAUCACCCAUGUGCAGGAAAACUGCAUAUGAGAAGGCAGAUAGAUUGA [salish99_ss2_r3_027] (puzzle: Same State 2)”: the “apparent KD of MS2 coat protein” value under setting [2] came out at 18.8 nM, the “apparent KD of MS2 coat protein” value under setting [3] stood at 336 nM and the “apparent KD of MS2 coat protein” value under setting [4] came to 636 nM.
As to “AACAGUCGGCGAGGAUAUGGACGUACAGGUUUGCCUGUGCGGCUCACAUGAGGAUCACCCAUGUUCUAGAAGGCGCCACUGUGA [Racearza] (Eterna round: R96, puzzle: Same State NG 2)”, the “apparent KD of MS2 coat protein” value came out at 15.6 nM (input ligand: FMN 200 uM), 60 nM under setting [1] and 73.9 nM (input ligand: none).
On to “AACAUGUGGUGUCACAUGAGGAUCACCCAUGUGGUAAAACCUGAGGAUAUAAAGAAAAAAAUCAAUUAGAAGGUAGGAUCACAA [AK SSNG3-V2-18.1] (Eterna round: R96, puzzle: Same State NG 3)”, for which the “apparent KD of MS2 coat protein” value reads like this: (input ligand: FMN 200 uM) 16.4 nM; under setting [1], 26.2 nM; (input ligand: none) 32.5 nM.
In the same order, the values of “AACAUUCUAUCUCAGGAUAUCAUGUCAAAGACAUGAGGAUCACCCAUGUACCAGGAAACUGGUUAUGAGAAGGGAGAUAGAAUGA [Mat - Same State 2 - Mod - D45] (Eterna round: R96, puzzle: Same State 2)” are 267 nM, 517 nM and 1080 nM.
On to “AACAUUCUAUCUCAGGAUAUCAUGUCAAAGACAUGAGGAUCACCCAUGUACCAGGAAACUGGUUAUGAGAAGGGAGAUAGAAUGA [Mat - Same State 2 - Mod - D45] (puzzle: Same State 2)”, for which the “apparent KD of MS2 coat protein” value under setting [2] came out at 114 nM, the “apparent KD of MS2 coat protein” value under setting [3] is 89.4 nM and the “apparent KD of MS2 coat protein” value under setting [4] is 162 nM.
On to “AACCAACAAAUAAAACAAGCGUGCUCGUCACAUGAGGAUCACCCAUGUUUAAGCGCUAUUCCUACUUCCUCAGCGCC [Ininceisa] (puzzle: Sensor for hsa-mir-208a)”, for which the “apparent KD of MS2 coat protein” value is, setting by setting: under setting [2], 104 nM; under setting [4], 97.7 nM.
On to “AACCCAAUGGAAGGAUAUGGCACCUUAUUGGUGCCAGAAGGUCCUAACAUGAGGAUCACCCAUGUGGGCCGGUCUUAAGACCGG [Fiskers NG1ss - 8] (Eterna round: R96, puzzle: Same State NG 1)”, for which the “apparent KD of MS2 coat protein” value runs as follows: (input ligand: FMN 200 uM) 142 nM; under setting [1], 382 nM; (input ligand: none) 456 nM.
With “AACCUACAUGAGGAUCACCCAUGUGUCUAAGGCACAGGAUAUCGACAGGCAAGACACCUGCGAGAAGGGUGACCUA [Diatater] (puzzle: Same State 1)”, the “apparent KD of MS2 coat protein” value reads like this: under setting [2], 56.2 nM; under setting [3], 24 nM; under setting [4], 48.7 nM.

For the origin of these results see the supplement of paper PMC9170038.
